From patent publication US20180044434A1 (PUBLIC UNIVERSITY CORPORATION YOKOHAMA CITY UNIVERSITY, published 2018)
Positions count from the first letter of the chain named. Values belong to the binder of their own block, whether it stands above or below them.

Molecular target: T1, full-length recombinant human PAD4 (human, UniProt Q9UM07 1-663)
T1 construct: Full-length recombinant; also called peptidylarginine deiminase 4
Experiment: ELISA, immobilized human PAD4

T1 sequence (Q9UM07 whole entry): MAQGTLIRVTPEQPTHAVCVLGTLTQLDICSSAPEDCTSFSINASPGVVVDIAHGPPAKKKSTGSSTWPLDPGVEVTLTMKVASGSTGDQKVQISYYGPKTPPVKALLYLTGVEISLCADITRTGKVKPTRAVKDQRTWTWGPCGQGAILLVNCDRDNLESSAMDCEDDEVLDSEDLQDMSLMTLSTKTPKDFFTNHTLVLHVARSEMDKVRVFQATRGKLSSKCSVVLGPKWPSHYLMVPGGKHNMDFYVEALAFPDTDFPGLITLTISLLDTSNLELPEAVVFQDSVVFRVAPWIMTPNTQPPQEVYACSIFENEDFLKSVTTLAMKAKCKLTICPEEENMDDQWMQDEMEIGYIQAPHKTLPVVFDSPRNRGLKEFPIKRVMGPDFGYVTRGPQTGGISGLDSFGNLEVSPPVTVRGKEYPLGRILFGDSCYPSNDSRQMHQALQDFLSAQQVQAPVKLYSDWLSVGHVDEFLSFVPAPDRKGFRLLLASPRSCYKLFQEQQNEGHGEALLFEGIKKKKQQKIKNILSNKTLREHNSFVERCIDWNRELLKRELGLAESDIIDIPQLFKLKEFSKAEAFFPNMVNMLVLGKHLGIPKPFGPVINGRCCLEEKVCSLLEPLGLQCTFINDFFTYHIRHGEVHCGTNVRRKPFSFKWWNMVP

B5: humanized anti-PAD4 antibody derived from G8, VH H4.15 / VL L4.00 (antibody, human IgG1, kappa, V domains shown)
VH: EVQLLESGGGLVQPGGSLRLSCAASGFTFSTYAMGWVRQAPGKGLEFVSAIRNDGSWTGYGAAVKGRFTISRDNSKNTVYLQMNSLRAEDTAVYYCAKYTGSSGGSIGAWGQGTLVTVSS
VL: SYELTQPPSVSVSPGQTARITCSGGNRNYYYGWYQQKPGQAPVLVIYANDKRPSGIPERFSGSSSGTTVTLTISGVQAEDEADYYCGTADTGKYVFGGGTKLTVLG
notes: IgG1 kappa; also called G8 H4.15/L4.00
- O.D. 490/630 at 0.0078125 µg/mL: 0.707
- O.D. 490/630 at 0.015625 µg/mL: 1.11
- O.D. 490/630 at 0.03125 µg/mL: 1.52
- O.D. 490/630 at 0.0625 µg/mL: 1.84
- O.D. 490/630 at 0.125 µg/mL: 1.87
- O.D. 490/630 at 0.25 µg/mL: 1.87
- O.D. 490/630 at 0.5 µg/mL: 1.86
- O.D. 490/630 at 1 µg/mL: 1.85

B6: humanized anti-PAD4 antibody derived from G8, VH H4.15 / VL L4.17 (antibody, human IgG1, kappa, V domains shown)
VH: B5 VH
VL: B5 VL with L44T, S64T, T67N, V69T
notes: IgG1 kappa; also called G8 H4.15/L4.17
- O.D. 490/630 at 0.0078125 µg/mL: 1.24
- O.D. 490/630 at 0.015625 µg/mL: 1.66
- O.D. 490/630 at 0.03125 µg/mL: 1.86
- O.D. 490/630 at 0.0625 µg/mL: 1.93
- O.D. 490/630 at 0.125 µg/mL: 1.87
- O.D. 490/630 at 0.25 µg/mL: 1.81
- O.D. 490/630 at 0.5 µg/mL: 1.82
- O.D. 490/630 at 1 µg/mL: 1.83

B7: humanized anti-PAD4 antibody derived from G8, VH H4.32 / VL L4.00 (antibody, IgG1, V domains shown)
VH: B5 VH with S49A, F68V
VL: B5 VL
notes: IgG1 kappa; also called G8 H4.32/L4.00
- O.D. 490/630 at 0.0078125 µg/mL: 0.364
- O.D. 490/630 at 0.015625 µg/mL: 0.649
- O.D. 490/630 at 0.03125 µg/mL: 1.05
- O.D. 490/630 at 0.0625 µg/mL: 1.52
- O.D. 490/630 at 0.125 µg/mL: 1.76
- O.D. 490/630 at 0.25 µg/mL: 1.84
- O.D. 490/630 at 0.5 µg/mL: 1.91
- O.D. 490/630 at 1 µg/mL: 1.87

B8: humanized anti-PAD4 antibody derived from G8, VH H4.32 / VL L4.06 (antibody, IgG1, V domains shown)
VH: B5 VH with S49A, F68V
VL: B5 VL with L44T, S64Y, T67N, V69T
notes: IgG1 kappa; also called G8 H4.32/L4.06
- O.D. 490/630 at 0.0078125 µg/mL: 1.21
- O.D. 490/630 at 0.015625 µg/mL: 1.6
- O.D. 490/630 at 0.03125 µg/mL: 1.82
- O.D. 490/630 at 0.0625 µg/mL: 1.91
- O.D. 490/630 at 0.125 µg/mL: 1.86
- O.D. 490/630 at 0.25 µg/mL: 1.85
- O.D. 490/630 at 0.5 µg/mL: 1.81
- O.D. 490/630 at 1 µg/mL: 1.79

B9: humanized anti-PAD4 antibody derived from G8, VH H4.15 / VL L4.06 (antibody, human IgG1, kappa, V domains shown)
VH: B5 VH
VL: B5 VL with L44T, S64Y, T67N, V69T
notes: IgG1 kappa; also called G8 H4.15/L4.06
- O.D. 490/630 at 0.0078125 µg/mL: 1.31
- O.D. 490/630 at 0.015625 µg/mL: 1.68
- O.D. 490/630 at 0.03125 µg/mL: 1.9
- O.D. 490/630 at 0.0625 µg/mL: 1.92
- O.D. 490/630 at 0.125 µg/mL: 1.91
- O.D. 490/630 at 0.25 µg/mL: 1.87
- O.D. 490/630 at 0.5 µg/mL: 1.79
- O.D. 490/630 at 1 µg/mL: 1.77

B10: humanized anti-PAD4 antibody derived from G8, VH H4.15 / VL L4.29 (antibody, human IgG1, kappa, V domains shown)
VH: B5 VH
VL: B5 VL with L44T, S64N, T67S, V69T
notes: IgG1 kappa; also called G8 H4.15/L4.29
- O.D. 490/630 at 0.0078125 µg/mL: 1.15
- O.D. 490/630 at 0.015625 µg/mL: 1.56
- O.D. 490/630 at 0.03125 µg/mL: 1.85
- O.D. 490/630 at 0.0625 µg/mL: 1.91
- O.D. 490/630 at 0.125 µg/mL: 1.86
- O.D. 490/630 at 0.25 µg/mL: 1.86
- O.D. 490/630 at 0.5 µg/mL: 1.81
- O.D. 490/630 at 1 µg/mL: 1.84

B11: humanized anti-PAD4 antibody derived from G8, VH H4.32 / VL L4.17 (antibody, IgG1, V domains shown)
VH: B5 VH with S49A, F68V
VL: B5 VL with L44T, S64T, T67N, V69T
notes: IgG1 kappa; also called G8 H4.32/L4.17
- O.D. 490/630 at 0.0078125 µg/mL: 1.2
- O.D. 490/630 at 0.015625 µg/mL: 1.56
- O.D. 490/630 at 0.03125 µg/mL: 1.83
- O.D. 490/630 at 0.0625 µg/mL: 1.88
- O.D. 490/630 at 0.125 µg/mL: 1.89
- O.D. 490/630 at 0.25 µg/mL: 1.83
- O.D. 490/630 at 0.5 µg/mL: 1.83
- O.D. 490/630 at 1 µg/mL: 1.82

Other lines, results leading:

- O.D. 490/630 at 0.0078125 µg/mL: 0.429
- O.D. 490/630 at 0.015625 µg/mL: 0.764
- O.D. 490/630 at 0.03125 µg/mL: 1.23
- O.D. 490/630 at 0.0625 µg/mL: 1.71
- O.D. 490/630 at 0.125 µg/mL: 1.84
- O.D. 490/630 at 0.25 µg/mL: 1.9
- O.D. 490/630 at 0.5 µg/mL: 1.88
- O.D. 490/630 at 1 µg/mL: 1.86
B1: humanized anti-PAD4 antibody derived from H7, VH H4.15 / VL L4.00 (antibody, IgG1, V domains shown)
VH: B5 VH
VL: B5 VL with N26S, R27G, N28R, A48S, N49S, D50T, K51H, T91S, G92S, K93S
notes: IgG1 kappa; also called H7 H4.15/L4.00

- O.D. 490/630 at 0.0078125 µg/mL: 1.34
- O.D. 490/630 at 0.015625 µg/mL: 1.77
- O.D. 490/630 at 0.03125 µg/mL: 1.89
- O.D. 490/630 at 0.0625 µg/mL: 1.94
- O.D. 490/630 at 0.125 µg/mL: 1.87
- O.D. 490/630 at 0.25 µg/mL: 1.84
- O.D. 490/630 at 0.5 µg/mL: 1.78
- O.D. 490/630 at 1 µg/mL: 1.79
B2: humanized anti-PAD4 antibody derived from H7, VH H4.32 / VL L4.15 (antibody, IgG1, V domains shown)
VH: B5 VH with S49A, F68V
VL: SYELTQPPSVSVSPGQTARITCSGGSGRYYYGWYQQKPGQAPVTVIYSSTHRPSGIPERFSGSNSGNTTTLTISGVQAEDEADYYCGTADSSSYVFGGGTKLTVLG
notes: IgG1 kappa; also called H7 H4.32/L4.15

- O.D. 490/630 at 0.0078125 µg/mL: 1.26
- O.D. 490/630 at 0.015625 µg/mL: 1.75
- O.D. 490/630 at 0.03125 µg/mL: 1.9
- O.D. 490/630 at 0.0625 µg/mL: 2
- O.D. 490/630 at 0.125 µg/mL: 1.87
- O.D. 490/630 at 0.25 µg/mL: 1.89
- O.D. 490/630 at 0.5 µg/mL: 1.86
- O.D. 490/630 at 1 µg/mL: 1.86
B3: humanized anti-PAD4 antibody derived from H7, VH H4.00 / VL L4.06 (antibody, IgG1, V domains shown)
VH: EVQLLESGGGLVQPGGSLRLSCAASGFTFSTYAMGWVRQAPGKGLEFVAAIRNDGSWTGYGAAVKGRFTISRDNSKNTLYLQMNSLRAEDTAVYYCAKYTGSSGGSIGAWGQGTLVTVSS
VL: B2 VL with N64Y
notes: IgG1 kappa; also called H7 H4.00/L4.06

- O.D. 490/630 at 0.0078125 µg/mL: 1.3
- O.D. 490/630 at 0.015625 µg/mL: 1.71
- O.D. 490/630 at 0.03125 µg/mL: 1.85
- O.D. 490/630 at 0.0625 µg/mL: 1.91
- O.D. 490/630 at 0.125 µg/mL: 1.87
- O.D. 490/630 at 0.25 µg/mL: 1.86
- O.D. 490/630 at 0.5 µg/mL: 1.85
- O.D. 490/630 at 1 µg/mL: 1.86
B4: humanized anti-PAD4 antibody derived from H7, VH H4.00 / VL L4.17 (antibody, IgG1, V domains shown)
VH: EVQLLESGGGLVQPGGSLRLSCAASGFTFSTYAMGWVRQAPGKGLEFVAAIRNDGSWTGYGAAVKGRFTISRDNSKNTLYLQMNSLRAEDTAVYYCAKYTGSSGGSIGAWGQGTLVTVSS
VL: B2 VL with N64T
notes: IgG1 kappa; also called H7 H4.00/L4.17
